Reference: patent US6033847

Columns and labels:
[1] = target: CDK4-cyclin D2 holoenzyme complex (Mus musculus (Mouse)) (UniProt P30285)
[2] = target: CDK6-cyclin D2 holoenzyme complex (Mus musculus (Mouse)) (UniProt P30280)

Row | Substance | pRb kinase activity (fold less efficient) [1] | pRb kinase activity (fold less efficient) [2]
1 | GST-ANK6 (GST fused to the MAD3 subdomain containing only the five ankyrin repeats, amino acids 73-242) (from UniProt P08515) | > 30 | > 30
2 | GST-MAD3 (GST fused to mouse IkB (MAD3)) (from UniProt Q9Z1E3) | > 30 | > 30
